Read-outs that look alike come from different tables or passages of the source.

In assay [1] the target is T1, cynomologus ALK-1/Fc fusion protein (cynomolgus monkey, UniProt Q5RAN0 22-118 (Pongo abelii entry)).
T1 construct: also called cALK-1/Fc; not shown: Fc part and any linker not described
T1 chain: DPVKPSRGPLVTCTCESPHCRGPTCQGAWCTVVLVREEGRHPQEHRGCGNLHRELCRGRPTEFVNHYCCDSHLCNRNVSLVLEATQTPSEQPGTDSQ
Nature of the assay: SPR (BIAcore 3000), cALK-1/Fc immobilized, antibody as analyte.

The target in assay [2] is T2, recombinant human ALK-1/Fc fusion protein (human, UniProt P37023 22-118).
T2 construct: range 22-118; Disulfide-linked homodimer; also called hALK-1/Fc; recombinant human ALK-1/Fc chimera; not shown: Fc region of human IgG
Nature of the assay: SPR (BIAcore 3000), hALK-1/Fc immobilized, antibody as analyte.

Assay [3] deals with T3, human ALK-1 (full-length, cell surface) (human, UniProt P37023 22-503). Nature of the assay: cell-based or functional assay.
Assay [4] deals with T4, Cynomolgus monkey ALK-1 (full-length, cell surface) (cynomolgus monkey, UniProt P37023 22-503 (human entry)).
T4 construct: also called Cyno ALK-1
T4 chain: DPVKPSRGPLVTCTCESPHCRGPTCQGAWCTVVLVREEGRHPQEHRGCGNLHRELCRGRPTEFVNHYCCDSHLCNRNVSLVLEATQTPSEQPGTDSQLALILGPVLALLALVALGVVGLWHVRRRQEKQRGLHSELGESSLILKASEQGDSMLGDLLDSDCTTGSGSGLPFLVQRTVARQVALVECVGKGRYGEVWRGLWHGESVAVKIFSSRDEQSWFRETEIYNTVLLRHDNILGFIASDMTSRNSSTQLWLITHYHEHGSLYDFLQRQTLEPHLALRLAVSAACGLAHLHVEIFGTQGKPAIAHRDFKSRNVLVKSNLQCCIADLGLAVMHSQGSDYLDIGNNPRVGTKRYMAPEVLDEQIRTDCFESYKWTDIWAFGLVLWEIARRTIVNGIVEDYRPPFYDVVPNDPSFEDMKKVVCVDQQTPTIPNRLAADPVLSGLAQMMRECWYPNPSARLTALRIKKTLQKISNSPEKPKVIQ
Nature of the assay: FACS on 293 cells overexpressing Cyno ALK-1.

Assay [5] concerns the target T3, human ALK-1 (full-length, cell surface). Nature of the assay: FACS on 293 cells overexpressing human ALK-1.
A further assay concerns the target T5, monomeric ALK-ECD (human, UniProt P37023 22-118).
T5 construct: also called ALK-1 ECD His-Tag protein; Human ALK-1 ECD His-Tag Protein
Nature of the assay: SPR (BIAcore 3000), antibody immobilized, monomeric ALK-ECD as analyte (Example 8, different ECD preparation).

Assay [6] deals with T4, Cynomolgus monkey ALK-1 (full-length, …). Nature of the assay: FACS, 293 stable cells overexpressing full-length Cyno ALK-1, anti-human kappa R-PE secondary, geometric mean against mAb concentration.
The target of assay [7] is T3, human ALK-1 (full-length, cell surface). Nature of the assay: FACS, 293 stable cells overexpressing full-length human ALK-1, anti-human kappa R-PE secondary, geometric mean against mAb concentration.
In assay [8] the target is T4, Cynomolgus monkey ALK-1 (full-length, …). Nature of the assay: FACS on 293 cells overexpressing Cyno ALK-1.
Assay [9] has as its target T2, recombinant human ALK-1/Fc fusion …. Nature of the assay: SPR (BIAcore 3000) cross-competition on immobilized human ALK-1/Fc chimera.

B1: 4.62.1 (antibody, V domains shown)
VH: QVQLQESGPGLVKPSQTLSLTCTVSGGSISSGDYYWNWIRQHPGKGLEWIGYIYYSGSTYYNPSLKSRVTISVDTSKNQFSLKLSSVTAADTAVYYCARESTDGMDVWGQGTTVTVSS
VL: not shown
notes: Human IgG2 kappa antibody from a hybridoma
Take B1: the Avidity in [1] worked out at 19 pM; in assay [2], 9.6 pM.

B2: 4.24.1 (antibody, human IgG2, V domains shown)
VH: QVQLQESGPGLVKPSQTLSLTCTVSGGSISSNDYYWNWIRQHPGKGLEWIGYIYYSGSTYYNPSLKSRVTISVDTSKNQFSLKLSSVTAADTAVYYCARESTDGMDVWGQGTTVTVSS
VL: ENVLTQSPGTLSLSPGERATLSCRASQSVSSNYLAWYQQKPGQAPRLLIYGASSGATGIPDRFSGSGSGTDFTLTISRLEPEDFAVYYCQHYGSSPITFGQGTRLEIK
notes: as for B1
As to B2, in assay [3], the “ID1 Taqman IC50” value was determined as 100 nM. In addition, the “pSmad1 Western IC50 nM” value in assay [3] is 82 nM. Further, the Kd is 3.1 nM in [4] and 7.6 nM in [5].

B3: 4.72.1 (antibody, human IgG2, V domains shown)
VH: QVQLQESGPGLVKPSQTLSLTCTVSGGSISSGEYYWSWIRQHPGKGLEWIGYIFYSGSTYYNPSLKSRVTISLDTSKNQFSLKLSSVTAADTAVYYCARESTDGMDVWGQGTTVTVSS
VL: EIVLTQSPGTLSLSPGERATLSCRASQSVSSSYLAWYQRKPGQAPRLLIYGVSSRATGIPDRFSGSGSGTDFTLTISRLEPEDFAVYYCQQYGSSMITFGQGTRLEIK
notes: as for B1
Take B3: in assay [3], the “ID1 Taqman IC50” value is 21 nM and the “pSmad1 Western IC50 nM” value stood at 35 nM. The equilibrium dissociation constant (Kd) in assay [4] turned out to be 3.8 nM. Moreover, the dissociation constant (Kd) in assay [5] turned out to be 6.4 nM. For the same molecule, in the assay with monomeric ALK-ECD, binding was characterised by a dissociation constant (Kd) of 0.8 nM, the off-rate (koff) was found to be 2.5e-05 s⁻¹ and the association rate constant (kon) was found to be 32000 M⁻¹ s⁻¹.

B4: 1.12.1(rWT) (antibody, human IgG2, kappa)
heavy: QVQLQESGPGLVKPSQTLSLTCTVSGGSMSSGEYYWNWIRQHPGKGLEWIGYIYYSGSTYYNPSLKSRVTISVDTSKNQFSLKLSSVTAADTAVYYCARESVAGFDYWGQGTLVTVSSASTKGPSVFPLAPCSRSTSESTAALGCLVKDYFPEPVTVSWNSGALTSGVHTFPAVLQSSGLYSLSSVVTVPSSNFGTQTYTCNVDHKPSNTKVDKTVERKCCVECPPCPAPPVAGPSVFLFPPKPKDTLMISRTPEVTCVVVDVSHEDPEVQFNWYVDGVEVHNAKTKPREEQFNSTFRVVSVLTVVHQDWLNGKEYKCKVSNKGLPAPIEKTISKTKGQPREPQVYTLPPSREEMTKNQVSLTCLVKGFYPSDIAVEWESNGQPENNYKTTPPMLDSDGSFFLYSKLTVDKSRWQQGNVFSCSVMHEALHNHYTQKSLSLSPGK
light: not shown
notes: mAb 1.12.1 expressed as a recombinant mAb; also called recombinant wild-type mAb 1.12.1
As to B4, the “EC50 (read off the curve)” value in assay [6] and in [7] was ~5 nM throughout.

B5: 1.12.1 (antibody, human IgG2, kappa)
heavy: QVQLQESGPGLVKPSQTLSLTCTVSGGSMSSGEYYWNWIRQHPGKGLEWIGYIYYSGSTYYNPSLKSRVTISVDTSKNQFSLKLSSVTAADTAVYYCARESVAGFDYWGQGTLVTVSSASTKGPSVFPLAPCSRSTSESTAALGCLVKDYFPEPVTVSWNSGALTSGVHTFPAVLQSSGLYSLSSVVTVPSSNFGTQTYTCNVDHKPSNTKVDKTVERKCCVECPPCPAPPVAGPSVFLFPPKPKDTLMISRTPEVTCVVVDVSHEDPEVQFNWYVDGVEVHNAKTKPREEQFNSTFRVVSVLTVVHQDWLNGKEYKCKVSNKGLPAPIEKTISKTKGQPREPQVYTLPPSREEMTKNQVSLTCLVKGFYPSDIAVEWESNGQPENNYKTTPPMLDSDGSFFLYSKLTVDKSRWQQGNVFSCSVMHEALHNHYTQKSLSLSPGK
light: not shown
notes: Hybridoma-derived human IgG2 kappa antibody; also called mAb 1.12.1 isolated from the hybridoma; hybridoma LN 15916, ATCC PTA-6808
Take B5: the Kd in assay [4] and in [8] was 2 nM each time.

B6: 1.12.1(D19A) (antibody, human IgG2, kappa)
heavy: QVQLQESGPGLVKPSQTLSLTCTVSGGSMSSGEYYWNWIRQHPGKGLEWIGYIYYSGSTYYNPSLKSRVTISVDTSKNQFSLKLSSVTAADTAVYYCARESVAGFDYWGQGTLVTVSSASTKGPSVFPLAPCSRSTSESTAALGCLVKDYFPEPVTVSWNSGALTSGVHTFPAVLQSSGLYSLSSVVTVPSSNFGTQTYTCNVDHKPSNTKVDKTVERKCCVECPPCPAPPVAGPSVFLFPPKPKDTLMISRTPEVTCVVVDVSHEDPEVQFNWYVDGVEVHNAKTKPREEQFNSTFRVVSVLTVVHQDWLNGKEYKCKVSNKGLPAPIEKTISKTKGQPREPQVYTLPPSREEMTKNQVSLTCLVKGFYPSDIAVEWESNGQPENNYKTTPPMLDSDGSFFLYSKLTVDKSRWQQGNVFSCSVMHEALHNHYTQKSLSLSPGK
light: not shown
notes: Recombinant 1.12.1 with the single light-chain mutation D19A
On to B6, for which the “EC50 (read off the curve)” value in [6] is ~3 nM; in assay [7] it was ~5 nM. Besides, binding in assay [8] was characterised by a dissociation constant (Kd) of 3.8 nM.

B7: 1.162.1 (antibody, human IgG2, V domains shown)
VH: QVQLQESGPGLVKPSQTLSLICTVSGGSISSGEYYWSWIRQHPGKGLEWIGYIYYSGSTYYNPSLKSRLTISVDTSKNQFSLKLSSVTAADTAVYYCAREGIGAFDIWGQGTMVTVSS
VL: EIVLTQSPGTLSLSPGERATLSCRASQSVSSSYLAWYQQKPGQAPRLLIYGASSRATGIPDRFSGSGSGTDFTLTIIRLDPEDFAVYYCQRYGSSPITFGQGTRLEIK
notes: as for B1
Molecule B7 registered an Avidity in [1] of 62 pM. Further, in assay [3], the “ID1 Taqman IC50” value amounted to 75 nM and the “pSmad1 Western IC50 nM” value stood at 15 nM. In assay [2], the Avidity was determined as 18 pM and the dissociation rate constant (koff) was 1.1e-05 s⁻¹. The molecule also returned a dissociation constant Kd in assay [4] of 3 nM. Moreover, binding in assay [5] was characterised by a dissociation constant (Kd) of 5.6 nM.

B8: 1.13.1 (antibody, human IgG2, V domains shown)
VH: QVHLQESGPGLVKPSETLSLTCTVSGGSVSSGDYYWNWIRQPPGKGLEWIGYIYYSGSTNYNPSLKSRITISIDTSKNQFSLKLNSVTAADTALYYCARESVAAFDYWGQGTLVTVSS
VL: EIVLTQSPGTLSLSPGERATLSCRASQSISSRYLAWYQQEPGQAPRLLIYGASSRATGIPDRFSGSGSGTDFTLTISRLEPEDFAVYYCQHYGSSPITFGQGTRLEIK
With B8, in [3], the “ID1 Taqman IC50” value was 100 nM and the “pSmad1 Western IC50 nM” value came to 87 nM.

B9: 4.58.1 (antibody, human IgG2, V domains shown)
VH: QVQLQESGPGLVKPSQTLSLTCTVSGGSISSGDYYWNWIRQHPGKGLEWIGYIYYSGSTYYNPSLKSRVTISVATSKNQFSLKLSSVTAADTAVYYCAREATEGFDYWGQGTLVTVSS
VL: EIVLTQSPGTLSLSPGERATLSCRASQSVSTTYLAWYQQKPGQAPRLLIYGASSRATGIPDRFSGSGSGTDFTLTISRLEPEDFALYYCQHYGTSSITFGQGTRLEIK
notes: as for B1
As to B9, in assay [3], the “ID1 Taqman IC50” value stood at 14 nM and the “pSmad1 Western IC50 nM” value was 15 nM. In assay [5], this molecule came in with a dissociation constant (Kd) of 14 nM.

B10: 1.11.1 (antibody, human IgG2, V domains shown)
VH: QVQLVESGGGVVQPGRSLRLSCAASGFTFSSHGMYWVRQAPGKGLEWVAAIWYDGSNKYYADSVKGRFTISRDNSKNTLYLQMNSLRAEDTAVYYCARDQEQWPDVFDIWGQGTMVTVSS
VL: DIQMTQSPSSLSASVGDRVTITCRASQGIRNYLAWFQQKPGKAPKSLIYGASSLQSGVPSKFSGSGSGTDFTLTISSLQPEDFATYYCQQYNSYPLTFGGGTKVEIK
notes: as for B1
Take B10: in assay [9], the binding result is given as “binds”.

B11: 4.38.1 (antibody, human IgG2, V domains shown)
VH: QVQLQESGPGLVKPSQTLSLTCTVSGGSISSGDYYWSWIRQHPGKGLEWIGYIYYSGSTYYNPSLKSRVTISIDTSKNQFSLKLSSVTAADTAVYYCARERDYGGGFDYWGQGTLVTVSS
VL: not shown
notes: as for B1
Take B11: in assay [1], the Avidity came out at 150 pM. In [3], the “ID1 Taqman IC50” value was found to be 87 nM and the “pSmad1 Western IC50 nM” value stood at 52 nM. In assay [2], the Avidity is 100 pM. This molecule also had an equilibrium dissociation constant (Kd) in [5] of 9.3 nM.

B12: 1.183.1 (antibody, human IgG2, V domains shown)
VH: QVQLQESGPGLVKPSETLSLTCTVSGGSISSYYWSWIRQPPGKGLEWIGYIYYSGSTNYNPSLKSRVTISVDTSKNQFSLKLSSVTAADTAVYYCAREDDSSGCPYFDYWGQGTLVTASS
VL: EIVMTQSPATLSVSPGERATLSCRASQSVSSNLAWYQQKPGQAPRVLIYGASTRATGIPVRFSGSGSGTEFTLTISSLQSEDFAVYYCQQYNNWPFTFGPGTKVDIK
Consider B12, for which, in [3], the “ID1 Taqman IC50” value is 58 nM and the “pSmad1 Western IC50 nM” value is 17 nM.

Source of the values: patent publication US20070065444A1 (Amgen, published 2007).
